The values below come from the DeepSol protein solubility set.

The data set can be described thus: soluble on expression in E. coli; label from the status in PepcDB or PDB records.
“NLPDVQASKPSIAINLTRVGVTNMKKLVEIKRKDKRPIVLISTFDVFVDLPSDRKGANLSRNFEAVDEVLEKVLSTPVYEIEQLCSDIAHNLLGRHEYANQAEVRMKSEYMIRRASPSTGIKCQEVVNIFAEASAVRGNGDRDYFDVKKLIGAEVVGMTACPCAQEIMRDKAATELANLGVERDKIIKFLEKVPMATHNQRGRGIISIKVAHDFDVSLESIIKIIERSMSSSVYEVLKRSDEKVVVETAHMNPKFVEDCVRAMADNVVKEFPNLPDNAVITIKQTNEESI”: the “soluble on expression in E. coli” value is recorded as “not soluble”.
Take “SKGWGWLALLLGVLLGTAWARRSQDLHCGACRALVDELEWEIARVDPKKTIQMGSFRINPDGSQSVVEVPYARSEAHLTELLEEVCDRMKEYGEQIDPSTHRKNYVRVVSRNGESSELDLQGIRIDSDISGTLKFACESIVEEYEDELIEFFSREADNVKDKLCSKRTDLCDHALHRSHDEL”: the “soluble on expression in E. coli” value is recorded as “soluble”.
For the sequence “MAHHHHHHMNGLRISTYFSAFKMRWMLENVPKVEEARKRGTLCFGTIDAWLLWKLSGGKVFVTDVTNASRTFLMDIRTCKWSPELCDKLGIPMACLPEIRSNSELLTYVLSDEGGLSAALRHPTPIMGSIADQQGALLGNMCFKEGESKNTYGTGCFLLMTVGEKIRFSSHGLLSTVAYQIGNKSPFIYALEGSIAGAGATIEWLKNNMKLIDDVSDCEKFAQTVSDTHGVVFVPAFSGFLAPSWDPSARGSIFGMTLKTTRAHVLRAALLAIALQVVDVLEAMEKDAEVKVQFLRVDGGLTKNHLLMKMQSDLLGINLHRPTMAETTALGAALCAGLAAGVWKSLEEVKTISQQANVWRVIRPAASKDSQQMLRAQWKRAKQQAKWAKL”, the “soluble on expression in E. coli” value is “not soluble”.
Turning to “MGNTSSERAALERHGGHKTPRRDSSGGTKDGDRPKILMDSPEDADLFHSEEIKAPEKEEFLAWQHDLEVNDKAPAQARPTVFRWTGGGKEVYLSGSFNNWSKLPLTRSHNNFVAILDLPEGEHQYKFFVDGQWTHDPSEPIVTSQLGTVNNIIQVKKTDFEVFDALMVDSQKCSDVSELSSSPPGPYHQEPYVCKPEERFRAPPILPPHLLQVILNKDTGISCDPALLPEPNHVMLNHLYALSIKDGVMVLSATHRYKKKYVTTLLYKPI”, the “soluble on expression in E. coli” value is recorded as “soluble”.
The entry for “MIQSDLDLFGPQPQRLASHTVLLPGFALAETEALLDALRPVLRAAPFRHMYTPGGLRMAVALTNCGTLGWVSDQHGYRYSPSDPVSGQPWPALPPVLLALASRAAAMAGFDGFVPDACLVNHYLPGTRLSLHQDRDEQDFGQPIVSVSLGLPAVFLFGGLQRADKAQRIALSHGDVLVWGGVDRLRFHGVLPIKPGVHPRLGERRINLTLRKAGALEHHHHHH” is “not soluble”.
For the sequence “MQHYLLDSNQRLNVSFSKDSVAAYYQCFNQPYRKEVPPLMCASLWPKFDLFKKYANSELILTKSAINQTQKIEVDTIYVGHLEDIECRQTRNITRYTMALTLTKNDQHVITVTQTFIKAMK”, the “soluble on expression in E. coli” value is recorded as “not soluble”.
The entry for “MGSDKIHHHHHHMNSSQVLDVKRVLAVLEEQVFQSTGRYLTEVEKVLIKGVWDSKDYKEMASDSGYNAYYLQQKVAPPLWSMLSVIIGDGVKVTKISLKSILLKLAKSDYRKEEASRLDNDSFVGNIRIHGELPKIKSFYGRKDEINYFKKQITLFKERCIVFTGVGGIGKTLLASRLVEEITFDSLSSIYECIIWKTINHSLSIDELVIDLNKIFQVDIEASENSFIDSISLLSKQLHLHRCLLVIDGFEKLLLADDFGKRLQYEKFLLKLTEGKHESCIIITSQLPLKEFASVTTKLPIRSFKLEGLDVNAGMQILQEKGLTGQECKRLIENYSGNPSSLEALADRINRFFEGSVKTFFRYQTTMIDPQLETMLHQQFGQIGLLSNLQRQIMIYLAEEMSENSTPIQFSKLIDNLKERVDFKLSVFELITAIEVLEQRSLIEIAGKSNKREASYSLQVSIKKYILVDPLGLVHKIPDTIQTREVTLWATA” is “not soluble”; for “MGSDKIHHHHHHMGYLKTMVDVMTTEMNAIRCLIDEAGIEYESIVSEIANCEGKVIFMGVGKSAHIGKKLAATFASTGTPSFFVHATEAVHGDLGMIESKDITILISNSGNSMEVVNCIKYIKAIGSKTIAFTSNRNSVLAKECDYALIYPAKDEADHLNLAPTTSSTITLVLGDSIACALSKSSNFGSSDFYKYHPGGSLGEKLKTANNG” it is “not soluble”.
As to “MGSDKIHHHHHHMKYYFAPLEGITGYIYRNAYEKFFGGIDKYFTPFIVPTSSKSLTSRELKDVLPENNKVTFLVPQILTNDANKFIFTTEKLMNLGYSEVNLNLGCPSGTVVSKGRGAGFLKKRQELDEFLEKIFSKSPAKISIKTRIGKDSPDEFYELIKIFNKYPLEELIIHPRIQTDFYNNKPNMKVFKDALELSKSTVCYNGDIFQSNDYIKLIEEFSNLGVVMLGRGIISNPNIIKKINSNNVLEKEVLKKFHDAIYEEYQDILSGEKNVLFKMKEIWFYMIHLFKDSDKFAKKIRKANRLRDYEAIISALFGEFDLI”, the “soluble on expression in E. coli” value was “not soluble”.
With “MLPSKEELLALLSKECELYASIPDSEQQKKRNKKHFINGLMTACRVVGISFEELNTIIEQMPKKPIFKDLDEQLSVPTYVRNRVDIKL”, the “soluble on expression in E. coli” value is listed as “not soluble”.
For “MAGLLKESMRIKMYMEGTVNGHYFKCEGEGDGNPFAGTQSMRIHVTEGAPLPFAFDILAPCCESRTFVHHTAEIPDFFKQSFPEGFTWERTTTYEDGGILTAHQDTSLEGNCLIYKVKVHGTNFPADGPVMKNKSGGWEPSTEVVYPENGVLCGRNVMALKVGDRHLICHHYTSYRSKKAVRALTMPGFHFTDIRLQMLRKKKDEYFELYEASVARYSDLPEKAN”, the “soluble on expression in E. coli” value was “soluble”.
In the case of “MSLNLQSKKRAWIVGKEHYDLGNDLFSRMLDPYMQYSCAYWKDADTLEAAQQAKLKLICEKLQLQPGMRVLDIGCGWGGLSQYMATHYGVSVVGVTISAEQQKMAQTRCEGLDVSILLEDYRDLNDQFDRIVSVGMFEHVGPKNYNTYFEVVDRNLKPDGLFLLHTIGSKKTDHNVDPWINKYIFPNGCLPSVRQIAEASESHFVMEDWHNFGADYDTTLMAWHERFINAWPEIAGNYNERFKRMFSYYLNACAGAFRARDIQLWQVVFTRGVENGLRVPREGHHHHHH”, the “soluble on expression in E. coli” value was “not soluble”.
Turning to “MGSDKIHHHHHHMIGKRFFQTTSKKIAFAFDIDGVLFRGKKPIAGASDALKLLNRNKIPYILLTNGGGFSERARTEFISSKLDVDVSPLQIIQSHTPYKSLVNKYSRILAVGTPSVRGVAEGYGFQDVVHQTDIVRYNRDIAPFSGLSDEQVMEYSRDIPDLTTKKFDAVLVFNDPHDWAADIQIISDAINSENGMLNTLRNEKSGKPSIPIYFSNQDLLWANPYKLNRFGQGAFRLLVRRLYLELNGEPLQDYTLGKPTKLTYDFAHHVLIDWEKRLSGKIGQSVKQKLPLLGTKPSTSPFHAVFMVGDNPASDIIGAQNYGWNSCLVKTGVYNEGDDLKECKPTLIVNDVFDAVTKTLEKYA”, the “soluble on expression in E. coli” value is “not soluble”.
The same measure for “MPLPYDKEKKLWKVTGWYLESSEETGEVMQSKQIAFEGYTNEENFANRQRVSVFKSFYESGNLKSIYHYNAQNKRDGKAETYFDEKDKIAETLTFKDGQPEGEYIVYHENGAVESKRYFAQGKIKDGECPHFYDNGVLKQKHSYLNQKLEGPAFEYFPDGKIKGKYSYSKGTIVGTSTEYYSTGKIRGVYHRNNQGENDGTFEQYSEEGKLLSKATYKNGKQLSAQSWYENGHPKEESSFDSEGRKHGAVKEWFSNGKPASSKMYKHDVLDGDFEKWYENGHRESVYPYKNGMLNGDAKHWNEQGKLTYTTEYKDDKKQGADRRWSERTGKLVEEVMFANDERNGLKREFNDRTGKVLSALPYVDGDKEGTEEAYDEDGIKYIRCYHNDEELSELYAPTDVTNKAKQGDSTAQYHLGKYEFECTNYDAAMKWLTQSAEQNHPGALLFLAYAYNDGDGVAQDSKKYLSYLFKAAELGESDAQLEVGYLNLIGEGMPKNLPEAYKWIKKSADQGNAQAHYNLGLMYRNGDGVEKDLNKAKLHLTAAVKGGVKPALAALKELTPQTKLEHHHHHH”: “not soluble”; for “MGSDKIHHHHHHMEETFQLLYDTYHQDLYQFLFYMVKDKNQTEDLLQEVYIRVLNSYHTFEGRSSEKTWLLSIARHVAIDWFRKQQTIRQRILGTFDWDTQDVRDQQLLPDELAVQHENVREISCALDQCTIDQRAVIILRFIQGYSIQETAKALRFSESKVKTTQHRGLKVLRKHMELLREELMDDEVRMERRTDKGVVKSTSGS”: “not soluble”; for “MAHHHHHHMEQRELEKLFAPYGQILSAAVMRNIHTGNSLGTAFVRYASTEEAMSAIKGMSGKRIGGRAIAVQWAKKQHDYAPVGEARKKISKLFVRNIPLDINTVVLEDMFSMYGPVKSVSIHKDTAPDCDKNFERHIAFITFLADGAAERAAEAVHNTRPFPSCGKVPLMVKLAEDAPQRIHHGTGSKNSANALRTKQQLQGDMSAMSSGQEQFFDAPAVQQCFPTGTGTGAMVVAPTSYFSLLASGGLILPGSLPGAVMGSEAPYPWRTRVTWPQGTGVPFPFYNGGAAATAANPLAPSNACATPPSGSPVSCMNNGGFTSFPMYTTPFCPSTSPGLSGTQADSVAGSPLILPSSLHQ”: “not soluble”.
Take “MFVQTTNQSNTLSNFILTCAFPAGAPVTNYPPSLSHTSSPGSSVYEASTKTEAVHKLESYQLQASRDPCTIPDELREEMKRMKRQEGAFKTALCLSHKRGKTCIYGEQCKFAHGVHELRCQQAKKNHRNYKTVLCDKFTTTGYCKYGIRCQFIHRSMDATNVTRPIDTADFKLDVQSDLSRAFALDSSSFLPNWHCSALLN”: the “soluble on expression in E. coli” value is on record as “not soluble”.
For the sequence “MGSSHHHHHHSQDPMLSKDIIKLLNEQVNKEMNSSNLYMSMSSWCYTHSLDGAGLFLFDHAAEEYEHAKKLIIFLNENNVPVQLTSISAPEHKFEGLTQIFQKAYEHEQHISESINNIVDHAIKSKDHATFNFLQWYVAEQHEEEVLFKDILDKIELIGNENHGLYLADQYVKGIAKSRKS”, the “soluble on expression in E. coli” value is “soluble”.
“MAVAGFSPIKLIWKNSRHDLVLAGQAGLSYKNNNYLYMDVDNKHAMARTYANGKFSLGARMAYEYRISNTLGAGATATYEFGGEVFAALATFNVHF”: the “soluble on expression in E. coli” value was “not soluble”.
The entry for “MCMSWSKVKYFFFDTPEEKEAAQYSYEKEQTDMKKQQDPPEQQDVTFPKAQPKQNVVSIETAKQSSKVVLLEPRTYSEAQGIADHLKGRRAVVINLQRMSTDQAVRIVDFLSGTVYAIGGDIQKIGPKTFMTPENVDIVGAISELFGEEEDTNIKRWLEHHHHHH” is “soluble”; for “MSDEIVTNKSVTYVNNTTPVTITSSELDLRSCYQDDEVVIEVHAAALNPIDFITHQLCNSYIFGKYPKTYSRDYSGVIIKAGKDVDNRWKVGDKVNGMYSHIYGERGTLTHYLILNPAKDVPITHMVEVPKDENDPYDDFVYAAAWPLTFGTAFSTLYDFKKDWTSDSKVLVIGASTSVSYAFVHIAKNYFNIGTVVGICSKNSIERNKKLGYDYLVPYDEGSIVENVKKLKQSVLENDKFDMIFDSVGNHDFFPVIDQFLKPKAKNSFYVTIAGNNKADYKNISWRDFVSLSSILKAINPFKKYNWRFGHPYPPNNFIEVGNEMIKKGTYKPPIDSVYEFDQYKEAIDRLMSNRAKGKVVVKMK” it is “soluble”.
The same measure for “MNIILKISGKFFDEDNVDNLIVLRQSIKELADNGFRVGIVTGGGSTARRYIKLAREIGIGEAYLDLLGIWASRLNAYLVMFSLQDLAYMHVPQSLEEFIQDWSHGKVVVTGGFQPGQSTAAVAALVAEASSSKTLVVATNVDGVYEKDPRIYADVKLIPHLTTQDLRKILEGSQSVQAGTYELLDPLAIKIVERSKIRVIVMNYRKLNRIIDILKGEEVSSIIEPV”: “soluble”; for “MILTTTHEIEGRRIERYLGIVFGEAIVGANVLRDLLAQIRDIVGGRSGAYEAELRRARETALAEMAEAARRLGADAVVGVDLDYEVLGSGNSMLMVTASGTAVKLAP”: “soluble”.
